In article PMC8298602 (2021):

Key:
[1] = target: Nedd^335-455pT367 + pS448 (human, UniProt Q96PU5 335-455, S342A, phosphothreonine at 367, phosphoserine at 448); test: AUC
[2] = target: Nedd^335-455pS342 + pT367 (human, UniProt Q96PU5 335-455, S448A, phosphoserine at 342, phosphothreonine at 367); test: AUC

- Kd [1]: 170 nM
- Kd [2]: 200 nM
B1: 14-3-3η (natural protein)
chain: MGDREQLLQRARLAEQAERYDDMASAMKAVTELNEPLSNEDRNLLSVAYKNVVGARRSSWRVISSIEQKTMADGNEKKLEKVKAYREKIEKELETVCNDVLSLLDKFLIKNCNDFQYESKVFYLKMKGDYYRYLAEVASGEKKNSVVEASEAAYKEAFEISKEQMQPTHPIRLGLALNFSVFYYEIQNAPEQACLLAKQAFDDAIAELDTLNEDSYKDSTLIMQLLRDNLTLWTSDQQDEEAGEGN
